Experimental data published in article PMC8297411 (Nature, 2021).
Where two headings read alike, the source gives them in different places.

Key:
Experiment in all cases: cryo-EM structure
[1] = target: VP5* of S567C-A590C VP4 (foot-locked mutant), on recoated TLPs (rhesus rotavirus (RRV, G3 serotype))
[2] = target: VP6 of rhesus rotavirus, in DLPs and TLPs (rhesus rotavirus (RRV, G3 serotype))
[3] = target: VP6 of rhesus rotavirus, in DLPs and TLPs (rhesus rotavirus (RRV, G3 serotype)); remark: listed apart in the source
[4] = target: VP6 of rhesus rotavirus, in DLPs and TLPs (rhesus rotavirus (RRV, G3 serotype)); remark: listed apart in the source
cryo-EM structure [5] = target: the molecule itself
cryo-EM structure [6] = target: the molecule itself; remark: listed apart in the source
VP5* on native RRV TLPs = VP5* on native RRV TLPs (rhesus rotavirus (RRV, G3 serotype), UniProt P12473 248-776)

## VP5* of S567C-A590C VP4 (foot-locked mutant), on recoated TLPs (domain or fragment)
[1]
  stoichiometry N: 3

## VP6 of rhesus rotavirus, in DLPs and TLPs (natural protein)
[2]
  stoichiometry N: 3
[3]
  stoichiometry N: 3
[4]
  stoichiometry N: 3

B1: VP5* (C-terminal trypsin cleavage fragment of rhesus rotavirus VP4), wild type, on recoated TLPs (domain or fragment, rhesus rotavirus (RRV, G3 serotype), UniProt P12473 248-776, looked up)
chain: AQANEDIVVSKTSLWKEMQYNRDITIRFKFASSIVKSGGLGYKWSEISFKPANYQYTYTRDGEDVTAHTTCSVNGMNDFNFNGGSLPTDFIISRYEVIKENSYVYVDYWDDSQAFRNMVYVRSLAANLNSVICTGGDYSFALPVGQWPVMTGGAVSLHSAGVTLSTQFTDFVSFNSLRFRFRLTVEEPSFSITRTRVGGLYGLPAAYPNNGKEYYEVAGRLSLISLVPSNDDYQTPITNSVTVRQDLERQLGELREEFNALSQEIAMSQLIYLALLPLDMFSMFSGIKSTIDAAKSMATSVMKKFKKSGLANSVSTLTDSLSDAASSISRGASIRSVGSSASAWTDVSTQITDVSSSVSSISTQTSTISRRLRLKEMATQTEGMNFDDISAAVLKTKIDRSTQISPNTLPDIVTEASEKFIPNRAYRVINNDEVFEAGTDGRYFAYRVETFDEIPFDVQKFADLVTDSPVISAIIDFKTLKNLNDNYGISRQQAFNLLRSDPRVLREFINQDNPIIRNRIEQLIMQCRL
cryo-EM structure [5]
  stoichiometry N: 3

B2: VP7 of rhesus rotavirus, recombinant, wild type (natural protein, rhesus rotavirus (RRV, G3 serotype), UniProt P12476 51-326, looked up)
chain: QNYGINLPITGSMDTAYANSTQEETFLTSTLCLYYPTEAATEINDNSWKDTLSQLFLTKGWPTGSVYFKEYTDIASFSVDPQLYCDYNVVLMKYDATLQLDMSELADLILNEWLCNPMDITLYYYQQTDEANKWISMGSSCTIKVCPLNTQTLGIGCLTTDTATFEEVATAEKLVITDVVDGVNHKLDVTTATCTIRNCKKLGPRENVAVIQVGGSDVLDITADPTTAPQTERMMRINWKKWWQVFYTVVDYVNQIIQAMSKRSRSLNSAAFYYRI
cryo-EM structure [6]
  stoichiometry N: 3

B3: VP7 on native RRV TLPs (natural protein, rhesus rotavirus (RRV, G3 serotype), UniProt P12476 51-326, looked up)
chain: B2 chain
VP5* on native RRV TLPs
  binding result: binds
